Test results from US20170137511A1.

Molecular target: biotinylated human IL-15 (R&D Systems cat. no. NF150) (human) (UniProt P40933)
Assay: blocking ELISA: biotinylated human IL-15 (100 pM) binding to plate-bound IL-15Rα-Fc, antibody titrated, streptavidin-peroxidase, absorbance at 450 nm; the filing does not say in words which of the two partners the control antibody binds

Sequence of biotinylated human IL-15 (R&D Systems cat. no. NF150) (human) (P40933 49-162 limits assumed): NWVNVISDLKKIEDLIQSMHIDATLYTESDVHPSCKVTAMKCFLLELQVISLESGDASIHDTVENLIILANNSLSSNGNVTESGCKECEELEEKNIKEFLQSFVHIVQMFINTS

## antibody known to block IL-15 binding to IL-15Rα (R&D Systems cat. no. NF150)
  IC50 (read off the curve): 10 µg/mL
